In patent publication US7083949:

Biological target: T1, Protein A (UniProt P38507 37-477)
T1 construct: Precipitation reagent; also called Protein A-Sepharose
Experiment: Protein A-Sepharose precipitation, anti-kappa western blot
Experimental: In a different set of experiments the ability of the ligand Traps to multimerize in the presence of ligand was tested.

B1: gp130-CH1•IL-6Rα-κ (other)
chain 1: ELLDPCGYISPESPVVQLHSNFTAVCVLKEKCMDYFHVNANYIVWKTNHFTIPKEQYTIINRTASSVTFTDIASLNIQLTCNILTFGQLEQNVYGITIISGLPPEKPKNLSCIVNEGKKMRCEWDGGRETHLETNFTLKSEWATHKFADCKAKRDTPTSCTVDYSTVYFVNIEVWVEAENALGKVTSDHINFDPVYKVKPNPPHNLSVINSEELSSILKLTWTNPSIKSVIILKYNIQYRTKDASTWSQIPPEDTASTRSSFTVQDLKPFTEYVFRIRCMKEDGKGYWSDWSEEASGITYEDRPSKAPSFWYKIDPSHTQGYRTVQLVWKTLPPFEANGKILDYEVTLTRWKSHLQNYTVNATKLTVNLTNDRYLATLTVRNLVGKSDAAVLTIPACDFQATHPVMDLKAFPKDNMLWVEWTTPRESVKKYILEWCVLSDKAPCITDWQQEDGTVHRTYLRGNLAESKCYLITVTPVYADGPGSPESIKAYLKQAPPSKGPTVRTKKVGKNEAVLEWDQLPVDVQNGFIRNYTIFYRTIIGNETAVNVDSSHTEYTLSSLTSDTLYMVRMAAYTDEGGKDGPEFTFTTPKFAQGEIESGGQGTLVTVSSASTKGPSVFPLAPSSKSTSGGTAALGCLVKDYFPEPVTVSWNSGALTSGVHTFPAVLQSSGLYSLSSVVTVPSSSLGTQTYICNVNHKPSNTKVDKKVEPKSCDKTHT
chain 2: LAPRRCPAQEVARGVLTSLPGDSVTLTCPGVEPEDNATVHWVLRKPAAGSHPSRWAGMGRRLLLRSVQLHDSGNYSCYRAGRPAGTVHLLVDVPPEEPQLSCFRKSPLSNVVCEWGPRSTPSLTTKAVLLVRKFQNSPAEDFQEPCQYSQESQKFSCQLAVPEGDSSFYIVSMCVASSVGSKFSKTQTFQGCGILQPDPPANITVTAVARNPRWLSVTWQDPHSWNSSFYRLRFELRYRAERSKTFTTWMVKDLQHHCVIHDAWSGLRHVVQLRAQEEFGQGEWSEWSPEAMGTPWTESRSPPAENEVSTPMQALTTNKDDDNILFRDSANATSLPVQDAGTVAAPSVFIFPPSDEQLKSGTASVVCLLNNFYPREAKVQWKVDNALQSGNSQESVTEQDSKDSTYSLSSTLTLSKADYEKHKVYACEVTHQGLSSPVTKSFNRGEC
notes: the experiment prints gp130-CH1; also called G16K
binding result: no binding
